Data as given in paper PMC3702509, “Label Free Fragment Screening Using Surface Plasmon Resonance as a Tool for Fragment Finding – Analyzing Parkin, a Difficult CNS Target” (PLoS ONE, 2013).

B1: Parkin domain R0RBR (residues 141-465) (domain or fragment, human, UniProt O60260-1 141-465, looked up)
chain: SIYNSFYVYCKGPCQRVQPGKLRVQCSTCRQATLTLTQGPSCWDDVLIPNRMSGECQSPHCPGTSAEFFFKCGAHPTSDKETSVALHLIATNSRNITCITCTDVRSPVLVFQCNSRHVICLDCFHLYCVTRLNDRQFVHDPQLGYSLPCVAGCPNSLIKELHHFRILGEEQYNRYQQYGAEECVLQMGGVLCPRPGCGAGLLPEPDQRKVTCEGGNGLGCGFAFCRECKEAYHEGECSAVFEASGTTTQAYRVDERAAEQARWEAASKETIKKTTKPCPRCHVPVEKNGGCMHMKCPQPQCRLEWCWNCGCEWNRVCMGDHWFDV
notes: Parkin residues 141-465 (NM_004562.1), R0, R1, IBR and R2 domains; Cloned into the Champion pET SUMO vector; The Sumo tag was removed with SENP1, and the protein is called untagged in the SPR methods; also called R0RBR Domain; source: E. coli BL21 DE3, purified (Ni sepharose, Mono Q, SENP1 cleavage, Superdex 200)

Experiments:
Test in all cases: SPR; untagged R0RBR immobilised by amine coupling (10 mM acetic acid pH 5.0) on a CM5 chip; protein ligands injected; 25°C; 10 mM HEPES pH 7.4, 150 mM NaCl, 0.005% Tween-20, 4 mM reducing agent; 1:1 binding model
Details in all cases: both partners purified
[1] = biological target: T1, UbcH7, E2 ubiquitin conjugating enzyme (UBE2L3 residues 1-154) (human, UniProt P68036-1 1-154)
T1 construct: UBE2L3 (UbcH7) residues 1-154 from NM_003347.2; UbcH7 was also bought from Boston Biochem. TEV cleavage probably leaves SS at the N-terminus (surmised); also called E2 UbcH7; source: E. coli BL21 DE3, purified (nickel sepharose, TEV cleavage, Superdex 200); not shown: His8, N-terminal, cleaved

Ubiquitin = biological target: T2, Ubiquitin (UniProt P0CG47 1-76)
T2 construct: ubiquitin, the cut product of a polyubiquitin or fusion precursor; neither species nor construct is stated; also called Ubq; source: bought: Boston Biochem

[2] = biological target: B1

T1 sequence (P68036 whole entry, the tested form may be a part): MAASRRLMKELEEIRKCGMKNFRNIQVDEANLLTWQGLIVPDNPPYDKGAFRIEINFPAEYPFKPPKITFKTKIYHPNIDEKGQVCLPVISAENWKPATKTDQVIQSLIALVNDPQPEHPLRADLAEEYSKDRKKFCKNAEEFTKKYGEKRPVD

Row | Kd [1] [µM] | Kd (Ubiquitin) [µM] | Kd [2] [µM] | Binder
1 | 7.1 | 96 |  | B1
2 |  |  | 6 | His-tagged ubiquitin-like domain of Parkin (UblD, residues 1-76) (domain or fragment, human, UniProt O60260-1 1-76, looked up, Parkin residues 1-76 (NM_004562.1), ubiquitin-like domain; also called His-UblD; source: E. coli BL21 DE3, purified (nickel sepharose, dialysed for Biacore); not shown: His6, C-terminal, kept) MIVFVRFNSSHGFPVEVDSDTSIFQLKEVVAKRQGVPADQLRVIFAGKELRNDWTVQNCDLDQQSIVHIVQRPWRK
